Earlier results as cited in US20170319567A1, “Use of CCR3-Inhibitors” (Alkahest, Inc., priority 2013, published 2017).

System: eosinophils
Settings: EoE patients, anti IL-5 therapy

B1: Mepolizumab: anti IL-5 antibody (antibody, chains of the INN, looked up, V domains shown)
VH: QVTLRESGPALVKPTQTLTLTCTVSGFSLTSYSVHWVRQPPGKGLEWLGVIWASGGTDYNSALMSRLSISKDTSRNQVVLTMTNMDPVDTATYYCARDPPSSLLRLDYWGRGTPVTVSS
VL: DIVMTQSPDSLAVSLGERATINCKSSQSLLNSGNQKNYLAWYQQKPGQPPKLLIYGASTRESGVPDRFSGSGSGTDFTLTISSLQAEDVAVYYCQNVHSFPFTFGGGTKLEIK
lowering of peripheral eosinophils: 5 fold
reduction in biopsy eosinophils: 2 fold
